Patent publication US20200197483A1 (MOREHOUSE SCHOOL OF MEDICINE, published 2020)

B1: HIV-1 Nef SMRwt peptide (peptide)
peptide: VGFPVAAVGFPVDYKDDDDK
notes: Synthetic peptide with two SMR motifs and a C-terminal FLAG tag; also called SMRwt (wide-type) peptide; antagonist peptide
B2: HIV-1 Nef SMRmut peptide (peptide)
peptide: AGFPVAAAGFPVDYKDDDDK
notes: Synthetic negative control peptide; the first valine of each VGFPV motif is changed to alanine; also called SMRmut (mutant) peptide; negative control peptide

Experiments:
[1] = target: T1, Mortalin (UniProt P38646 47-679); assay: immunoprecipitation from Jurkat lysate, Western blot with anti-mortalin antibody
T1 construct: Endogenous protein pulled down from Jurkat cell lysate (a human T cell line); also called Glucose-regulated protein 75 (GRP75)

[2] = target: T2, E. coli DnaK protein (Escherichia coli, UniProt P0A6Y8 2-638); assay: ANTI-FLAG M2 immunoprecipitation from E. coli lysate, Western blot with anti-DnaK antibody
T2 construct: Endogenous protein in E. coli lysate; also called heat shock protein 70 (Hsp70)
T2 sequence (P0A6Y8 2-638 limits assumed): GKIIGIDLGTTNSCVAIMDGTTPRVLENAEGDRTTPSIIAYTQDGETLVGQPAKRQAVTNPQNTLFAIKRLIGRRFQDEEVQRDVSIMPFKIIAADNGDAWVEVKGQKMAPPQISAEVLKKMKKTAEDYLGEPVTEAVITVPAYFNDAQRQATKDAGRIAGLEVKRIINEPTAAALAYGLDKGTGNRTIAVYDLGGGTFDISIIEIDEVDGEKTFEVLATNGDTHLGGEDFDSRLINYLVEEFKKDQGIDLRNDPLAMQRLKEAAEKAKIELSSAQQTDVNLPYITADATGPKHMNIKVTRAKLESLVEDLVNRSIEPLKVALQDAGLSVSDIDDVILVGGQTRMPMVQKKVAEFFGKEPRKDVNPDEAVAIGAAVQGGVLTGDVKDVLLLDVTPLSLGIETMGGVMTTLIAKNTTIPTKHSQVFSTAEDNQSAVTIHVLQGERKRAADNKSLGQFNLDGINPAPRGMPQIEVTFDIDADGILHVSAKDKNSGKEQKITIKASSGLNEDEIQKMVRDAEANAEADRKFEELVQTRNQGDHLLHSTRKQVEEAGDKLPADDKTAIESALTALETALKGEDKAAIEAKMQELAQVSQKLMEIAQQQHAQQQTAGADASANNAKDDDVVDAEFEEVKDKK

T1 sequence (P38646 47-679 limits assumed): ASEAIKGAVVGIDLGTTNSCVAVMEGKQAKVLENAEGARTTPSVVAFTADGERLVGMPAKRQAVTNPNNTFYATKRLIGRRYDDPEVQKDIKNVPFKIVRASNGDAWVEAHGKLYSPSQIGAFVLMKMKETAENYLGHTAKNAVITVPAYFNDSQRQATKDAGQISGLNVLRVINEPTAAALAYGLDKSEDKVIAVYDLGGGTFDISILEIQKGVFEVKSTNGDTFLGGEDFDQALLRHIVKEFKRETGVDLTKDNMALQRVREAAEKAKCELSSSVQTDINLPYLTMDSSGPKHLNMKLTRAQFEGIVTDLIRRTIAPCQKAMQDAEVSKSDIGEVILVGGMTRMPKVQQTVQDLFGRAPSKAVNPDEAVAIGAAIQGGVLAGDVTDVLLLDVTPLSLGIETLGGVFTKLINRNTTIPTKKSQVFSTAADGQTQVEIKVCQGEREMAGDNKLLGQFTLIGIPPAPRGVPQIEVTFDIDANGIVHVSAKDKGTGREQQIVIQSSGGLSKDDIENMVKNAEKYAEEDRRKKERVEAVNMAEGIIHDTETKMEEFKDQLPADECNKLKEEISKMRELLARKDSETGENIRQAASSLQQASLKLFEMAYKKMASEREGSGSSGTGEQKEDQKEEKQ

| Binder | binding result [1] | binding result [2] |
| --- | --- | --- |
| B1 | binds | binds |
| B2 | no binding | no binding (tested: 1 µg peptide with 1 mg E. coli lysate) |
